These results are taken from FireProtDB (doi:10.1016/s0301-4622(99)00140-4).

For this data set the following is noted: Bos taurus, pH 8, Thermal, DSC, Tris 10 mM, whole UniProt chain shown.

B1: Alpha-lactalbumin wild type, P00711 (protein)
chain: MMSFVSLLLVGILFHATQAEQLTKCEVFRELKDLKGYGGVSLPEWVCTTFHTSGYDTQAIVQNNDSTEYGLFQINNKIWCKDDQNPHSSNICNISCDKFLDDDLTDDIMCVKKILDKVGINYWLAHKALCSEKLDQWLCEKL
With B1, the melting temperature (Tm) (CaCl2 0.0 mM) stood at 64.1 °C; the Tm (CaCl2 0.1 mM) turned out to be 65.2 °C; the Tm (CaCl2 1.0 mM) came out at 67.9 °C; the Tm (CaCl2 2.0 mM) turned out to be 68.9 °C; the Tm (CaCl2 10.0 mM) was 70 °C. For the same protein, the “unfolding enthalpy (calorimetric)” value (CaCl2 0.0 mM) worked out at 64.8 kcal/mol; the “unfolding enthalpy (calorimetric)” value (CaCl2 0.1 mM) amounted to 71.1 kcal/mol; the “unfolding enthalpy (calorimetric)” value (CaCl2 1.0 mM) was determined as 75.6 kcal/mol; the “unfolding enthalpy (calorimetric)” value (CaCl2 2.0 mM) amounted to 76 kcal/mol; the “unfolding enthalpy (calorimetric)” value (CaCl2 10.0 mM) was 75 kcal/mol.
